Article doi:10.1101/2024.11.08.622622
Like-named read-outs stand apart in the source and are kept apart here.

Legend:
[1] = biological target: His6X-Hsp20KKK (IAI motif 209-211 mutated to KKK) (Ustilago maydis); assay: SEC
actin (Alexa 488 tagged) = assay: FRET or BRET
[2] = biological target: Ustilago maydis Hsp20, recombinant His6X-Hsp20 (Ustilago maydis); assay: SEC
[3] = biological target: Ustilago maydis Hsp20, recombinant His6X-Hsp20 (Ustilago maydis); assay: SEC; remark: listed apart in the source

Row | stoichiometry N [1] | Kd (actin (Alexa 488 tagged)) | stoichiometry N [2] | stoichiometry N [3] | Substance
1 | 2 | – | – | – | His6X-Hsp20KKK (IAI motif 209-211 mutated to KKK) (natural protein)
2 | – | 99.6 nM | 18 | 2 | Ustilago maydis Hsp20, recombinant His6X-Hsp20 (natural protein)
